Measurements taken from patent US20210275686A1, “BINDER/ACTIVE AGENT CONJUGATES DIRECTED AGAINST CXCR5, HAVING ENZYMATICALLY CLEAVABLE LINKERS AND IMPROVED ACTIVITY PROFILE” (BAYER AKTIENGESELLSCHAFT, priority 2018, published 2021).
Positions count from the first letter of the chain named.

T1: legumain (Homo sapiens, UniProt Q99538)
T1 construct: purchased R&D Systems 2199-CY
T1 sequence (Q99538 26-323 limits assumed): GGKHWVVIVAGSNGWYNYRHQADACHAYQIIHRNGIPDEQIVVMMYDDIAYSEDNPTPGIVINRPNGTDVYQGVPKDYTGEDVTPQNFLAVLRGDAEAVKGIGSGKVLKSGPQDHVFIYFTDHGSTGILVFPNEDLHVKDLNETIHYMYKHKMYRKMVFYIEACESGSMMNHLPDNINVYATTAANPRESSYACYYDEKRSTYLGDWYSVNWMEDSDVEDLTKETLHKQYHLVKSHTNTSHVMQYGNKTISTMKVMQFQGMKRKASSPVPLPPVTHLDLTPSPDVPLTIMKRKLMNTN

T2: human kinesin spindle protein KSP/Eg5 (Homo sapiens, UniProt P52732)
T2 construct: The motor domain of the human kinesin spindle protein KSP/Eg5; purchased tebu-bio/Cytoskeleton Inc 027EG01-XL
T2 sequence (P52732 18-359 limits assumed): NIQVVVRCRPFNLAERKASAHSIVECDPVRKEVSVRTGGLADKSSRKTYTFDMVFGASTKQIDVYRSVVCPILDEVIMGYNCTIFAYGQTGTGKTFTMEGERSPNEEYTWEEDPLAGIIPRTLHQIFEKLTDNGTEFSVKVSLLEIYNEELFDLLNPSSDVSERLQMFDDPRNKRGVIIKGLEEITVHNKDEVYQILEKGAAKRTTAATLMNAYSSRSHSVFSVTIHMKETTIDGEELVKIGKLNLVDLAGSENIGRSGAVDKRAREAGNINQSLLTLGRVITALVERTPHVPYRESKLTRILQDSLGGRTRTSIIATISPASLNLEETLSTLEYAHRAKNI

T3: CXCR5 (CD185; SwissProt: P32302; NCBI reference sequence: NP_001707.1) (human, UniProt P32302 1-372)
T3 sequence: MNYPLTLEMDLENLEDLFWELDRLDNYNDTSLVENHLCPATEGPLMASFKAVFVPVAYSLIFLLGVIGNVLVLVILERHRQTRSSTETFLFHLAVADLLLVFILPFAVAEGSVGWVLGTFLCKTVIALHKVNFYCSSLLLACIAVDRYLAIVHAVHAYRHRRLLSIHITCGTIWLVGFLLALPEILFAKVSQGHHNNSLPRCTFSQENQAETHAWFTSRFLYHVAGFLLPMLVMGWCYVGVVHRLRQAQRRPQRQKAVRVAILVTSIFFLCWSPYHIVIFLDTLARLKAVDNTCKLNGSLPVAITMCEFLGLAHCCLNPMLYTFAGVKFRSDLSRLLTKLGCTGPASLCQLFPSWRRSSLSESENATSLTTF

B1: TPP-14495 (antibody, human IgG1, lambda, V domains shown)
VH: EVQLLESGGGLVQPGGSLRLSCAASGFTFSNYWMSWVRQAPGKGLEWVSAISGSGGSTRYADSVKGRFTISRDNSKNTLYLQMNSLRAEDTAVYYCTTQRRELGATNWGQGTLVTVSS
VL: QSVLTQPPSASGTPGQRVTISCTGSSSNIGAGYVVHWYQQLPGTAPKLLIYSNNQRPSGVPDRFSGSKSGTSASLAISGLRSEDEADYYCQSYDSSLSGVVFGGGTKLTVLG
modifications: CypHer 5E fluorescent dye coupled to lysine residues (positions not stated)
B2: TPP-14514 (antibody, human IgG1, lambda, V domains shown)
VH: B1 VH with Y32N, R59Y, T98V
VL: B1 VL
modifications: CypHer 5E fluorescent dye coupled to lysine residues (positions not stated)
B3: TPP-14511 (antibody, human IgG1, lambda, V domains shown)
VH: B1 VH with S57T, R59Y
VL: B1 VL
modifications: CypHer 5E fluorescent dye coupled to lysine residues (positions not stated)
B4: TPP-14499 (antibody, human IgG1, lambda, V domains shown)
VH: B1 VH with M34G, R59Y, T98V, Q99L
VL: B1 VL
modifications: CypHer 5E fluorescent dye coupled to lysine residues (positions not stated)
B5: TPP-14509 (antibody, human IgG1, lambda, V domains shown)
VH: B1 VH with R59Y, T98V
VL: B1 VL
modifications: CypHer 5E fluorescent dye coupled to lysine residues (positions not stated)
B6: TPP-10063 (antibody, human IgG1, lambda, V domains shown)
VH: B1 VH with R59Y, Q99L
VL: B1 VL
modifications: CypHer 5E fluorescent dye coupled to lysine residues (positions not stated)
B7: TPP-14505 (antibody, human IgG1, lambda, V domains shown)
VH: B1 VH with Y32N, R59Y, T97N, T98V
VL: B1 VL
modifications: CypHer 5E fluorescent dye coupled to lysine residues (positions not stated)
B8: 40C01 (antibody, human IgG1, kappa, V domains shown)
VH: EVQLLESGGGLVQPGGSLRLSCAASGFTFSRYVMVWVRQAPGKGLEWVSGISPSGGVTRYAASVKGRFTISRDNSKNTLYLQMNSLRAEDTAVYYCARIRKEMTTISYFFDYWGQGTLVTVSS
VL: DIQMTQSPSSLSASVGDRVTITCRASQGVDAYVAWYQQKPGKVPKLLIYSTSTLASGVPSRFSGSGSGTDFTLTISSLQPEDVATYYCQSHNAAVVTFGQGTRLEIKR
modifications: CypHer 5E fluorescent dye coupled to lysine residues (positions not stated)

Key:
[1] = test system: Rec-1: human mantle cell lymphoma cells; experiment: Cytotoxic activity, CTG assay, Rec-1; format: cell-based; details: Rec1, metabolites
Description: (§1) The culturing of the cells is performed according to the standard method, as specified at the American Tissue Culture Collection (ATCC) or the Leibniz-Institut DSMZ-Deutsche Sammlung von Mikroorganismen and Zellkulturen GmbH (DSMZ) for the respective cell lines.
The cells were cultured using the standard method, with the growth media specified under C-1. To perform the test, the suspended cells were counted and seeded in a 96-well culture plate with a white background (Perkin Elmer, NO 10775584) (at 75 μL/well; the resulting cell numbers per well are: Rec-1: 3000 cells/well, HBL-1 and Oci-Ly-1: 6000 cells/well) and incubated in an incubator at 37° C. and 5% carbon dioxide. […] In a parallel plate, the cell vitality was determined at the beginning of the active agent treatment (day 0) with the Cell Titer Glow (CTG) Luminescent Cell Viability Assay (Promega #G7573 and #G7571). For this purpose, 100 μL of the substrate were added per cell batch; then the plates were covered with aluminum foil, shaken for 2 minutes at 180 rpm with the plate shaker, allowed to stand for 8 minutes on the laboratory bench and then measured with a luminometer (Victor X2, Perkin Elmer). The substrate detected the ATP content in the living cells, generating a luminescence signal whose height is directly proportional to the vitality of the cells. […]

[2] = test system: Rec-1: human mantle cell lymphoma cells; experiment: Cytotoxic activity, MTT assay, Rec-1; format: cell-based; details: Rec1, metabolites, 96 h
Description: as §1
(§2) The culturing of the cells was performed according to the standard method with the growth media specified under C-1. For execution, the cells were separated with a solution of Accutase in PBS (Biochrom AG #L2143), pelleted, resuspended in culture medium, counted and seeded on a 96-well culture plate with a white background (Costar #3610) (NCI H292: 2500 cells/well; in 100 μL total volume). Then the cells were incubated in an incubator at 37° C. and 5% carbon dioxide. After 48 h a change of medium was performed. […] The cells in the suspension were counted and seeded into a 96-well culture plate with white background (Costar #3610) (#3610) (Rec-1: 3000 cells/well at a total volume of 100 μL). […] After 96 h the cell proliferation was detected using the MTT assay (ATCC, Manassas, Va., USA, Catalog No. 30-1010K). […] The color formed was detected at 570 nm (Infinite M1000 pro, Tecan). Based on the measured data the IC50 of the growth inhibition was calculated using the DRC (dose-response curve). […]

[3] = molecular target: T1, legumain; experiment: Legumain assay; format: biochemical; details: recombinant human legumain (rhlegumain), 3 μM substrate, pH 5.0, read-out: half-life of legumain-mediated cleavage (converted)
Description: The legumain assay was performed with recombinant human enzyme. The rhlegumain enzyme solution (Catalog #2199-CY, R&D Systems) was diluted to the desired concentration in 50 mM Na acetate buffer/100 mM NaCl, pH4.0, and preincubated for 2 h at 37° C. The rhlegumain was then adjusted to a final concentration of […] in 50 mM MES buffer, 250 mM NaCl, pH 5.0. For each legumain-cleavable prodrug to be investigated, a reaction mixture was made up in a micro-reaction vessel (0.5 ml, Eppendorf). For this, the substrate solution was adjusted with 50 mM MES buffer, 250 mM NaCl, pH 5.0 to the desired concentration (2-fold concentration). For the kinetic measurement of the enzymatic reaction, first 250 μL of the legumain solution was taken and the enzymatic reaction was started by adding 250 μL of the substrate solution (final concentration, single concentration; 3 μM). Samples of 50 μL each were taken at various times. Immediately, 100 μL ice-cold methanol was added to the sample to stop the enzymatic reaction and then frozen at −20° C. The selected sampling times were after 0.5 h, 1 h, 3 h and 24 h. The samples were then examined by RP-HPLC analysis and by LC-MS. The determination of the toxophore released enabled the determination of the half-time t1/2 of the enzymatic reaction.

[4] = molecular target: CXCR5 (CD185; SwissProt: P32302; NCBI reference sequence: NP_001707.1) (human) (UniProt P32302); experiment: cell-based or functional assay
[5] = test system: NCI-H292: human mucoepidermoid lung cancer cells; experiment: Cytotoxic activity, MTT assay, NCI-H292; format: cell-based; details: metabolites, 96 h
Description: as §1, §2

[6] = molecular target: T2, human kinesin spindle protein KSP/Eg5; experiment: Inhibition of kinesin spindle protein KSP/Eg5 (ATPase, malachite green); format: biochemical; details: 10 nM KSP motor domain, microtubules, 500 μM ATP, 2 h RT
Description: The motor domain of the human kinesin spindle protein KSP/Eg5 (tebu-bio/Cytoskeleton Inc, No. 027EG01-XL) was incubated in a concentration of 10 nM with microtubules (bovine or porcine, tebu-bio/Cytoskeleton Inc) stabilized with 50 μg/ml taxol (Sigma No. T7191-5MG) for 5 min at RT in 15 mM PIPES, pH 6.8 (5 mM MgCl2 and 10 mM DTT, Sigma). The freshly prepared mixture was aliquoted into a 384 MTP (from Corning). This was followed by the addition of the inhibitors to be investigated at concentrations from 1.0×10^−6 M to 1.0×10^−13 M and ATP (final concentration 500 μM; Sigma). The mixture was incubated at RT for 2 h. The ATPase activity was determined by detection of the inorganic phosphate produced with malachite green (Biomol). Addition of the reagent was followed by incubation for 50 min at RT before the absorption was detected at a wavelength of 620 nm. Monastrol (Sigma, M8515-1 mg) and ispinesib (AdooQ Bioscience A10486) were used as positive controls. The individual data for the dose-efficacy curve are from eight-fold determinations. The IC50 values are mean values from two independent experiments.

[7] = molecular target: T3, CXCR5 (CD185; SwissProt: P32302; NCBI …); experiment: cell-based or functional assay

Row | Molecule | Internalization Rec-1 [MFI] [7] [MFI] | Internalization SU-DHL-6 [MFI] [7] [MFI] | other results
1 | CC(C)(C)[C@H](c1cc(-c2cc(F)ccc2F)cn1Cc1ccccc1)N(CC[C@H](N)C(=O)NCCC(=O)N[C@H](CCC(=O)O)C(=O)O)C(=O)CO [Example M1, N-{(2S)-2-Amino-4-[{(1R)-1-[1-benzyl-4-(2,5-difluorophenyl)-1H-pyrrol-2-yl]-2,2-dimethylpropyl}(glycoloyl)amino]butanoyl}-beta-alanyl-D-glutamic acid] |  |  | IC50 [1]: 309 nM; IC50 [2]: 387 nM
2 | CNC(=O)[C@H](CCN(C(=O)CO)[C@@H](c1cc(-c2cc(F)ccc2F)cn1Cc1ccccc1)C(C)(C)C)NC(=O)[C@H](CC(N)=O)NC(=O)[C@H](C)N(C)C(=O)[C@H](C)NC(=O)Cc1ccncc1 [Model Compound A] |  |  | half-life at 3 µM [3]: 30 min
3 | Isotype control (antibody) |  |  | Internalization Rec-1 [MFI] [4]: 2 MFI; Internalization SU-DHL-6 [MFI] [4]: 1 MFI
4 | CC(C)(C)[C@H](c1cc(-c2cc(F)ccc2F)cn1Cc1ccccc1)N(CCCN)C(=O)CO [Reference Example R1M, N-(3-Aminopropyl)-N-{(IR)-1-[1-benzyl-4-(2,5-difluorophenyl)-IH-pyrrol-2-yl]-2,2-dimethylpropyl}-2-hydroxyacetamide, reference compound] |  |  | IC50 [5]: 0.27 nM; IC50 [1]: 0.205 nM; IC50 [2]: 0.293 nM; IC50 [6]: 1.09 nM
5 | B1 | 84 | 12 | 
6 | B2 | 134 | 53 | 
7 | B3 | 99 | 24 | 
8 | B4 | 122 | 55 | 
9 | B5 | 129 | 51 | 
10 | B6 | 65 | 22 | 
11 | B7 | 135 | 61 | 
12 | B8 | 49 | 13 | 
